Measured values: patent publication US20240417457A1

Molecular target: FRα covalently bound to a CM5 sensor chip (UniProt P15328)
Assay: SPR (Biacore T200), FRα amine-coupled to a CM5 chip, 180 sec association then dissociation

UniProt P15328, sequence (P15328 25-234 limits assumed): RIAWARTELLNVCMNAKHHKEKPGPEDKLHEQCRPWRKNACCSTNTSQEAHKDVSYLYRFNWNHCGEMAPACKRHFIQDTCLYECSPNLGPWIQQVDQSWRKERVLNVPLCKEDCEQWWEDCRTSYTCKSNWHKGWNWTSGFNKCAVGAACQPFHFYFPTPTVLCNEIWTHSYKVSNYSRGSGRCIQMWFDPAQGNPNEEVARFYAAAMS

B1: Antibody I (ScFv, SEQ. ID. NOs: 9-10) (scFv, part only; not given: linker, domain order, His tag, V domains shown, not shown: another chain or arm of the molecule; small tags and cut ends)
VH: QVQLVQSGSELKKPGASVKVSCKASDYIFTNYDITWVRQAPGQGLEWMGEIDPRSGKSYYNEKFKGKSTLTADKSVSTAYLQISSLKAEDTAVYFCATMYYYGSSPPMDYWGQGTTVTVS
VL: DIQMTQSPSSLSASVGDRVTITCRASQDINNFLNWYQQKPGKAPKLLIYYTSRLHSGVPSRFSGSGSGTDYTFTISSLQPEDIATYFCQQSSTIPRTFGQGTKLEIK
**Q.** With B1 as the binder, how does the binding at time 300 sec as percent of the plateau read?
**A.** 75%
